Reference: the supplement of paper PMC11908140

B1: library; numbered along this chain (parent)
chain: MRKPRAAVGSGHRKQAASQEGRQKHAKNNSQAKPSACDGLARQPEEVVLQASVSSYHLFRDVAEVTAFRGSLLSWYDQEKRDLPWRRRAEDEMDLDRRAYAVWVSEVMLQQTQVATVINYYTGWMQKWPTLQDLASASLEEVNQLWAGLGYYSRGRRLQEGARKVVEELGGHMPRTAETLQQLLPGVGRYTAGAIASIAFGQATGVVDGNVARVLCRVRAIGADPSSTLVSQQLWGLAQQLVDPARPGDFNQAAMELGATVCTPQRPLCSQCPVESLCRARQRVEQEQLLASGSLSGSPDVEECAPNTGQCHLCLPPSEPWDQTLGVVNFPRKASRKPPREESSATCVLEQPGALGAQILLVQRPNSGLLAGLWEFPSVTWEPSEQLQRKALLQELQRWAGPLPATHLRHLGEVVHTFSHIKLTYQVYGLALEGQTPVTTVPPGARWLTQEEFHTAAVSTAMKKVFRVYQGQQPGTCMGSKRSQVSSPCSRKKPRMGQQVLDNFFRSHISTDAHSLNSAAQ

Variants of: B1
Assay: 8OG:A repair function score (normalized; synonymous = 0, nonsense = -1) (normalized log-likelihood score); higher = more repair activity (WT-like)
Details: with 8OG:A DNA repair reporter (GFP) in HEK-293 MUTYH KO cells
Outline: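 Lentiviral MUTYH cDNA NNN codon-scan libraries were expressed in MUTYH knockout HEK-293 cells with 10 pg/ml doxycycline, and the cells received an 8OG:A GFP repair reporter together with mCherry. At 72 h, viable mCherry+ cells went into GFP+ (repair) or GFP− bins, three replicates per tile, before tile amplicons were sequenced. A repair function score was then built from per-tile Rosace fitness scores, anchored on the synonymous and nonsense distributions. Synonymous medians sat at 0 and nonsense at -1, and variants under 300 counts per million at the start were left out.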
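Further: cells sorted at 72 h after reporter transfection.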

Compared with Q470H, Q470G is lower in “8OG:A repair function score” value: -0.029 for the first, -0.105 for the second.

Going from Q470L to Q470K, the “8OG:A repair function score” value rises from 0.00494 to 0.0155.

Going from Q470P to Q470C, the “8OG:A repair function score” value rises from -0.426 to -0.00083.

First: Q470D
Second: Q470E
The “8OG:A repair function score” value of the first is lower: -0.0832 for the first, -0.000322 for the second.

Going from Q470I to Q470R, the “8OG:A repair function score” value falls from 0.00254 to -0.00198.

First: Q470W
Second: Q470A
The “8OG:A repair function score” value of the first is lower: -0.0772 for the first, -0.0419 for the second.

First: Q470V
Second: Q470Y
The “8OG:A repair function score” value of the first is higher: -0.00474 for the first, -0.0671 for the second.

First: Q470F
Second: Q470T
The “8OG:A repair function score” value of the first is higher: -0.0175 for the first, -0.0526 for the second.

Compared with Q470S, Q470M is lower in “8OG:A repair function score” value: -0.00501 for the first, -0.0791 for the second.

Compared with Q470N, V468M is lower in “8OG:A repair function score” value: 0.0117 for the first, -0.0306 for the second.

First: V468Y
Second: V468C
The “8OG:A repair function score” value of the first is lower: -0.025 for the first, -0.0116 for the second.

Compared with V468W, V468T is higher in “8OG:A repair function score” value: -0.204 for the first, -0.0398 for the second.

Compared with V468K, V468F is higher in “8OG:A repair function score” value: -0.0375 for the first, -0.0236 for the second.

Going from V468L to V468A, the “8OG:A repair function score” value falls from -0.00361 to -0.0846.

Going from V468R to V468E, the “8OG:A repair function score” value falls from -0.101 to -0.259.

First: V468N
Second: V468Q
The “8OG:A repair function score” value of the first is lower: -0.262 for the first, -0.0492 for the second.

First: V468H
Second: V468D
The “8OG:A repair function score” value of the first is higher: -0.0347 for the first, -0.647 for the second.

Compared with V468I, V468G is lower in “8OG:A repair function score” value: -0.0279 for the first, -0.557 for the second.

Going from V468P to V468S, the “8OG:A repair function score” value rises from -0.969 to -0.18.

First: R467Q
Second: R467P
The “8OG:A repair function score” value of the first is higher: -0.0758 for the first, -0.876 for the second.

First: R467Y
Second: R467E
The “8OG:A repair function score” value of the first is higher: -0.0417 for the first, -0.144 for the second.

Going from R467D to R467K, the “8OG:A repair function score” value falls from -0.0155 to -0.0257.

Compared with R467V, R467C is lower in “8OG:A repair function score” value: -0.105 for the first, -0.137 for the second.

Going from R467N to R467W, the “8OG:A repair function score” value rises from -0.0631 to -0.034.

Compared with R467M, R467S is lower in “8OG:A repair function score” value: -0.057 for the first, -0.0606 for the second.

First: R467G
Second: R467F
The “8OG:A repair function score” value of the first is higher: -0.0609 for the first, -0.0681 for the second.

Going from R467H to R467L, the “8OG:A repair function score” value falls from -0.0349 to -0.0425.

Compared with R467A, R467T is lower in “8OG:A repair function score” value: 0.0232 for the first, -0.0575 for the second.

Compared with R467I, G471Q is higher in “8OG:A repair function score” value: -0.0576 for the first, 0.00928 for the second.

Going from G471V to G471T, the “8OG:A repair function score” value falls from 0.00448 to -0.0359.

Going from G471R to G471C, the “8OG:A repair function score” value falls from 0.00545 to -0.0198.

Going from G471I to G471H, the “8OG:A repair function score” value rises from -0.00761 to 0.00339.

Going from G471W to G471D, the “8OG:A repair function score” value rises from -0.0505 to 0.0172.

Compared with G471A, G471K is higher in “8OG:A repair function score” value: 0.0172 for the first, 0.0191 for the second.

Compared with G471F, G471Y is higher in “8OG:A repair function score” value: -0.0055 for the first, 0.0198 for the second.

Going from G471E to G471M, the “8OG:A repair function score” value rises from -0.0561 to 0.011.

Going from G471P to G471N, the “8OG:A repair function score” value rises from -0.0663 to 0.00878.

First: G471L
Second: G471S
The “8OG:A repair function score” value of the first is lower: -0.0292 for the first, 0.0169 for the second.

Going from Q473I to Q473R, the “8OG:A repair function score” value rises from -0.0484 to 0.00304.

First: Q473M
Second: Q473N
The “8OG:A repair function score” value of the first is higher: 0.0265 for the first, 0.0155 for the second.

First: Q473H
Second: Q473Y
The “8OG:A repair function score” value of the first is higher: 0.0203 for the first, -0.023 for the second.

Compared with Q473G, Q473T is lower in “8OG:A repair function score” value: 0.0222 for the first, -0.00244 for the second.

Going from Q473D to Q473S, the “8OG:A repair function score” value rises from -0.0165 to 0.00408.

Compared with Q473L, Q473P is lower in “8OG:A repair function score” value: -0.0116 for the first, -0.0268 for the second.

Compared with Q473W, Q473A is lower in “8OG:A repair function score” value: 0.0181 for the first, -0.00985 for the second.

Going from Q473C to Q473E, the “8OG:A repair function score” value falls from 6.68e-05 to -0.021.

First: Q473V
Second: Q473K
The “8OG:A repair function score” value of the first is higher: 0.00634 for the first, -0.0281 for the second.

Going from Q473F to Y469I, the “8OG:A repair function score” value falls from 0.00513 to -0.259.

First: Y469K
Second: Y469W
The “8OG:A repair function score” value of the first is lower: -0.326 for the first, 0.00845 for the second.

Going from Y469R to Y469F, the “8OG:A repair function score” value rises from -0.195 to -0.0628.

Going from Y469Q to Y469S, the “8OG:A repair function score” value rises from -0.317 to -0.115.

Going from Y469M to Y469H, the “8OG:A repair function score” value rises from -0.259 to -0.0773.

Going from Y469G to Y469P, the “8OG:A repair function score” value falls from -0.451 to -0.718.

Compared with Y469T, Y469L is lower in “8OG:A repair function score” value: -0.181 for the first, -0.314 for the second.

First: Y469V
Second: Y469D
The “8OG:A repair function score” value of the first is higher: -0.153 for the first, -0.955 for the second.

First: Y469E
Second: Y469C
The “8OG:A repair function score” value of the first is lower: -0.89 for the first, -0.193 for the second.

Going from Y469A to Y469N, the “8OG:A repair function score” value falls from -0.0759 to -0.738.

Compared with Q472C, Q472N is higher in “8OG:A repair function score” value: -0.0129 for the first, 0.0284 for the second.

Going from Q472H to Q472G, the “8OG:A repair function score” value rises from -0.152 to -0.000609.

First: Q472V
Second: Q472D
The “8OG:A repair function score” value of the first is lower: 0.00907 for the first, 0.0112 for the second.

First: Q472K
Second: Q472F
The “8OG:A repair function score” value of the first is lower: -0.009 for the first, 0.018 for the second.

Compared with Q472T, Q472A is higher in “8OG:A repair function score” value: -0.00129 for the first, 0.0214 for the second.

Going from Q472R to Q472E, the “8OG:A repair function score” value falls from 0.0222 to -0.00354.

First: Q472S
Second: Q472M
The “8OG:A repair function score” value of the first is higher: 0.0274 for the first, -0.0129 for the second.

First: Q472W
Second: Q472I
The “8OG:A repair function score” value of the first is higher: 0.027 for the first, 0.0116 for the second.

First: Q472L
Second: Q472Y
The “8OG:A repair function score” value of the first is higher: 0.022 for the first, 0.00647 for the second.

Going from Q472P to P474K, the “8OG:A repair function score” value falls from 0.0113 to -0.0164.

First: P474N
Second: P474M
The “8OG:A repair function score” value of the first is lower: -0.0807 for the first, 0.0118 for the second.

First: P474R
Second: P474G
The “8OG:A repair function score” value of the first is higher: 0.00458 for the first, -0.00334 for the second.

First: P474Q
Second: P474E
The “8OG:A repair function score” value of the first is lower: 0.0183 for the first, 0.0263 for the second.

Going from P474C to P474I, the “8OG:A repair function score” value falls from -0.00224 to -0.014.

First: P474L
Second: P474A
The “8OG:A repair function score” value of the first is higher: 0.0136 for the first, -0.0123 for the second.

First: P474S
Second: P474H
The “8OG:A repair function score” value of the first is lower: -0.00281 for the first, 0.0269 for the second.

Compared with P474F, P474D is lower in “8OG:A repair function score” value: 0.0108 for the first, 0.00257 for the second.

First: F466C
Second: F466T
The “8OG:A repair function score” value of the first is higher: -0.319 for the first, -0.725 for the second.

Going from F466M to F466W, the “8OG:A repair function score” value falls from -0.0599 to -0.0618.

First: F466L
Second: F466D
The “8OG:A repair function score” value of the first is higher: -0.0617 for the first, -0.872 for the second.

Going from F466R to F466A, the “8OG:A repair function score” value rises from -0.568 to -0.4.

Going from F466Q to F466E, the “8OG:A repair function score” value falls from -0.488 to -0.52.

Going from F466N to F466H, the “8OG:A repair function score” value falls from -0.0913 to -0.355.

Going from F466I to F466Y, the “8OG:A repair function score” value rises from -0.587 to 0.00857.

Compared with F466P, F466G is higher in “8OG:A repair function score” value: -1.3 for the first, -0.584 for the second.

Compared with F466V, F466K is lower in “8OG:A repair function score” value: -0.443 for the first, -0.729 for the second.

With F466S the “8OG:A repair function score” value was -0.715.
